The target of the assay is T1, Erythrina cristagalli lectin (Erythrina cristagalli, UniProt P83410 1-239).
T1 construct: also called ECL
T1 sequence (looked up): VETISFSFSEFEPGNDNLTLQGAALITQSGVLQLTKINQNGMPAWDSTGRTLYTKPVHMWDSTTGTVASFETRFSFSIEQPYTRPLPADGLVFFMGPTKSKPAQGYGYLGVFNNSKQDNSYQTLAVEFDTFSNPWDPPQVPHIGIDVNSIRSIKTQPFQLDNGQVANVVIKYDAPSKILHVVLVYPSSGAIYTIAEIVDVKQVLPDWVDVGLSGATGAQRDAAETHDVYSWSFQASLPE
The assay is described as follows: SPR; BiacoreX; biotinylated TTL sample on streptavidin chip loaded to one third; at least five ECL concentrations (Gal-0 once at 100 µM ECL); equilibrium binding, Langmuir isotherm fit; KDs determined twice. The note with it: both partners purified.

B1: Biotinylated thermophilic lipase from Thermoanaerobacter thermohydrosulfuricus with azidohomoalanine, carrying 1-2 galactose units (Gal-1) (enzyme)
chain: SQKAVEITYNGKTLRGMMHLPDDVKGKVPMVIMFHGFTGNKVESHFIFVKMSRALEKVGIGSVRFDFYGSGESDGDFSEMTFSSELEDARQILKFVKEQPTTDPERIGLLGLSMGGAIAGIVAREYKDEIKALVLWAPAFNMPELIMHESVKQYGAIMEQLGFVDIGGHKLSKDFVEDISKLNIFELSKGYDKKVLIVHGTNDEAVEYKVSDRILKEVYGDNATRVTIENADHTFKSLEWEKKAIEESVEFFKKELLKG
modifications: all Met replaced by azidohomoalanine (Aha), nine Aha residues; N-terminal Met/Aha excised; N-terminal Ser (Ser2) oxidised with NaIO4 to the aldehyde and joined to biotin hydroxylamine 1 by oxime ligation; 1-2 Aha residues joined to butynyl galactose 2 by CuAAC (positions not given)
One may read the Kd as the free concentration of one partner at which half of the binding sites on the other are occupied at equilibrium, for simple one-to-one binding. A higher Kd goes with lower affinity. Regarding B1, the Kd was 70 µM.

B2: Biotinylated thermophilic lipase from Thermoanaerobacter thermohydrosulfuricus with azidohomoalanine, carrying 3-4 galactose units (Gal-3) (enzyme)
chain: SQKAVEITYNGKTLRGMMHLPDDVKGKVPMVIMFHGFTGNKVESHFIFVKMSRALEKVGIGSVRFDFYGSGESDGDFSEMTFSSELEDARQILKFVKEQPTTDPERIGLLGLSMGGAIAGIVAREYKDEIKALVLWAPAFNMPELIMHESVKQYGAIMEQLGFVDIGGHKLSKDFVEDISKLNIFELSKGYDKKVLIVHGTNDEAVEYKVSDRILKEVYGDNATRVTIENADHTFKSLEWEKKAIEESVEFFKKELLKG
modifications: all Met replaced by azidohomoalanine (Aha), nine Aha residues; N-terminal Met/Aha excised; N-terminal Ser (Ser2) oxidised with NaIO4 to the aldehyde and joined to biotin hydroxylamine 1 by oxime ligation; 3-4 Aha residues joined to butynyl galactose 2 by CuAAC (positions not given; two found by MS/MS, Table S5)
In the case of B2, binding was put at a Kd of 60 µM.

The values are drawn from article PMC4464295, “Orthogonal dual-modification of proteins for the engineering of multivalent protein scaffolds” (Beilstein Journal of Organic Chemistry, 2015).
